Patent US20240287172A1 (SCIRHOM, published 2024)

T1: hiR2-FL-I566E-T7 (human, UniProt Q6PJF5 1-856)
T1 construct: on MEF-DKO cells; also called hiR2-FL-1566E-T7
T1 sequence: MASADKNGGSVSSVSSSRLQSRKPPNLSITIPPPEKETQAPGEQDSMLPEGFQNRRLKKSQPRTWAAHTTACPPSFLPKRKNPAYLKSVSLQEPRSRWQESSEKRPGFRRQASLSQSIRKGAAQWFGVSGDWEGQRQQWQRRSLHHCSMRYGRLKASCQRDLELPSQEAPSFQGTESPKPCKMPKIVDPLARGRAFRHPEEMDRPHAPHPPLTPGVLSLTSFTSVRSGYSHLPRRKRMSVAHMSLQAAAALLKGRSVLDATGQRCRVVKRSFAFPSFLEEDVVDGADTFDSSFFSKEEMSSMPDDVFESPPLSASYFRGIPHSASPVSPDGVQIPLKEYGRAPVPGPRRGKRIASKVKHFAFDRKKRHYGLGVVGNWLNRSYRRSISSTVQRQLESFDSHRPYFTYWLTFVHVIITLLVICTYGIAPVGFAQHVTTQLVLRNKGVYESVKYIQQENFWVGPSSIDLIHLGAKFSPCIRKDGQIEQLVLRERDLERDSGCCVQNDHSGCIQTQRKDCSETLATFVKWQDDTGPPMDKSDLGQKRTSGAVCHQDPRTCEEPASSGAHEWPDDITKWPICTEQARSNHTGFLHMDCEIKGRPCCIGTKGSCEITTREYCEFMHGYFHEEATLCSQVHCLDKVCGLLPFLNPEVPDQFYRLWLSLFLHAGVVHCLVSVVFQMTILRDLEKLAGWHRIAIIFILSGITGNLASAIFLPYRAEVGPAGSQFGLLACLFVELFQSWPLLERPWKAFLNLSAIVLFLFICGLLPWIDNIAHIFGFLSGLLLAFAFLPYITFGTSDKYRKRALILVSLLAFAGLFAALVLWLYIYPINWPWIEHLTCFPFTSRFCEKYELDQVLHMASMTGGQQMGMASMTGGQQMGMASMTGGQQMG

B1: antibody 34 (antibody, V domains shown)
VH: QVTLKESGPGILQPSQTLSLTCSFSGFSLSTFSLGVGWIRQSSGKGLEWLAHIWWDDEKYYNPALKSRLTISKDTSKNQVFLKIANVDAADTATYYCARAYYSKSYYALDYWGQGTSVTVSS
VL: DIQMTQSPSSLSASLGERVSLTCRASQEISGYLSWLQQKPDGTIKRLIYAASTLDSGVPKRFSGSRSGSDYSLAISSLESEDFADYYCLQYANFPFTFGSGTKLEIK
notes: mouse IgG, kappa light chain; also called clone #34; purified antibody 34
B2: antibody 5 (antibody, V domains shown)
VH: QVTLKESGPGILQPSQTLSLTCSFSGFSLSTFGMGVGWIRQPSGKGLEWLAHIWWDDEKYYNSALKSRLTISKATSKNQAFLKIANVDTADTATYYCARISNYGSNYWYFNVWGTGTTVTVSS
VL: QVVLTQSPALMSASPGEKVTMTCSAGSSVSCMYWYQQKPGSSPRVLIYDTSNLASGVPARFTGSGSGTSYSLTISRMEAEDAASYYCQQWNSYPLTFGAGTKLELK
notes: mouse IgG, kappa light chain; also called clone #5; purified antibody 5
B3: antibody 42 (antibody, V domains shown)
VH: QVTLKESGPGILQPSQTLSLTCSLSGFSLSTFGRGVGWIRQPSGKGLEWLAHIWWDDEKYYNPALKSRLTISKDTSKNQVFLRIANVDTADTATYYCARIQNYGSNYWYFDVWGTGTTVTVSS
VL: LIVLTQSPAIMSASPGEKVTMTCGATSRISYMFWYQQKPGSSPRVLIYDTSNLASGVPVRFSGSGSGTSYSLTISRVEAEDVATYYCQQWNSYPLTFGAGTKLELK
notes: mouse IgG, kappa light chain; also called clone #42; purified antibody 42
B4: antibody 44 (antibody, V domains shown)
VH: QVTLKESGPGILQPSQTLSLTCSFSGFSLSTFGMGVGWIRQPSEKGLEWLAHIWWDDDKYYNPALKSRLTISKDTSKNQIFLKITNVDTAETATYYCSRIGNYGSNYWYFDVWGTGTTVTVSS
VL: QIVLTQSPAVMSASPGEKVTMTCTASSSVYYMYWYQQTPGSSPRLLIYDTSNLASGVPVRFSGSGSGTSYSLTISRMEAEDAATYYCQQWNTYPLTFGAGTKLELK
notes: mouse IgG, kappa light chain; also called clone #44; purified antibody 44
B5: antibody 43 (antibody, V domains shown)
VH: QVALKESGPGILQPSQTLSLTCSFSGFSLSTFGMGVGWIRQSSGKGLEWLANIWWDDDKYYNPALKSRLTISKDASKNQAFLKIANVDTADTATYYCARIGNYGSNYWYFDVWGTGTTVTVSS
VL: QIVLTQSPAIMSASPGERVTMTCSANSRISYMYWYQQKPGSSPRLLIYDTSNLASGVPVRFSGSGSGTSYSLTISRMEAEDAATYNCQQWSSYPLTFGAGTKLELK
notes: mouse IgG, kappa light chain; also called clone #43; purified antibody 43
B6: antibody 22 (antibody, V domains shown)
VH: QVTLKESGPGILQPSQTLSLTCSFSGFSLSTFGMGVGWIRQPSGKGLEWLAHIWWDDEKYYNSALKSRLTISKATSKNQVFLKIANVDTADTATYYCARISNYGSNYWYFNVWGTGTTVTVSS
VL: QVVLTQSPALMSASPGEKVTMTCSAGSSVSYMYWYQQKPGSSPRVLIYDTSNLASGVPARFTGSGSGTSYSLTISRMEAEDAATYYCQQWNSYPLTFGAGTKLELK
notes: mouse IgG, kappa light chain; also called clone #22; purified antibody 22
B7: antibody 3 (antibody, V domains shown)
VH: QVTLKESGPGILQPSQTLSLTCSFSGFSLTTFAMGIGWVRQPSGKGLEWLAHIWWDGEKYNNPVLKSRLTISKDTSKNQVFLRIANVDTPDTATYYCARISSIYYIIDNWGQGTSVTVSS
VL: DIVLTQSPATLSVTPGHSVSLSCRASQSISNNLHWYQKKSHESPRLLIKYVSQSISGIPSRFSGSGSGTDFTLSINSVETEDFGMYFCQQSYNWPLTFGAGTKLELK
notes: mouse IgG, kappa light chain; also called clone #3; purified antibody 3

Target: T1, hiR2-FL-I566E-T7
Assay: FACS, MEF-DKO cells, 3 µg/ml
Text: In brief, immortalized MEF-DKO hiR2-FL-G563D-T7, MEF-DKO hiR2-FL-A564P-T7, MEF-DKO hiR2-FL-1566E-T7, MEF-DKO hiR2-FL-D569E-T7, MEF-DKO hiR2-FL-E579K-T7, MEF-DKO hiR2-FL-Q580N-T7, MEF-DKO hiR2-FL-A581S-T7, MEF-DKO hiR2-FL-R582A-T7, MEF-DKO hiR2-FL-S583G-T7, MEF-DKO hiR2-FL-G587N-T7, MEF-DKO hiR2-FL-F588H-T7, MEF-DKO hiR2-FL-L589P-T7, MEF-DKO hiR2-FL-E594V-T7, MEF-DKO hiR2-FL-K596T-T7, MEF-DKO hiR2-FL-S607R-T7, MEF-DKO hiR2-FL-T612S-T7, MEF-DKO hiR2-FL-E617D-T7, MEF-DKO hiR2-FL-H620R-T7, MEF-DKO hiR2-FL-L636M-T7, MEF-DKO hiR2-FL-K638D-T7, MEF-DKO hiR2-FL-1771F-T7, MEF-DKO hiR2-FL-1825V-T7, MEF-DKO hiR2-FL-1828V-T7, MEF-DKO hiR2-FL-N829R-T7, MEF-DKO hiR2-FL-W830C-T7, MEF-DKO hiR2-FL-P831E-T7, MEF-DKO hiR2-FL-I833C-T7, MEF-DKO hiR2-FL-H835F-T7, MEF-DKO hiR2-FL-F8391-T7, MEF-DKO hiR2-FL-S843D-T7, MEF-DKO hiR2-FL-Q853A-T7, MEF-DKO hiR2-FL-V854Q-T7 and MEF-DKO hiR2-FL-R844K-T7 cells were harvested with 10 mM EDTA in PBS, washed and resuspended in FACS buffer (PBS, 3% FBS, 0.05% sodium azide), and seeded in Nunc U-bottom 96-well plates (Thermo Fisher Scientific, USA) at approximately 1×10⁵ cells per well. To pellet cells and remove supernatants, the plates were centrifuged at 1,500 rpm and 4° C. for 3 minutes. For primary staining, cells were resuspended in 100 μl per well of either FACS buffer alone (controls) or the purified antibodies 3, 5, 16, 22, 34, 42, 43, 44, 48, and 50 of the invention at 3 μg/ml in FACS buffer and incubated on ice for 1 hour. Afterwards, plates were centrifuged at 1,500 rpm and 4° C. for 3 minutes and washed twice with 200 μl per well of FACS buffer. For secondary staining, cells were spun down and resuspended in 100 μl per well of PE-conjugated goat anti-mouse IgG F(ab′)2 detection fragment (Dianova, Germany) diluted 1:100 in FACS buffer. Protected from light, the cell suspensions were incubated on ice for 1 hour. Plates were then centrifuged at 1,500 rpm and 4° C. for 3 minutes and washed three times with 200 μl per well of FACS buffer. Finally, cells were resuspended in 150 μl per well of FACS buffer and analyzed using a BD Accuri™ C6 Plus flow cytometer (Becton Dickinson, Germany).

Row | Binder | loss of binding vs wild type [%]
1 | B1 | ≥ 60
2 | B2 | ≥ 95
3 | B3 | ≥ 60
4 | B4 | ≥ 60
5 | B5 | ≥ 60
6 | B6 | ≥ 60
7 | B7 | ≥ 30
